Test results published in article PMC12052123, “Investigating the quaternary structure of a homomultimeric catechol 1,2-dioxygenase: An integrative structural biology study” (PLOS One, 2025).

Molecular target: the molecule itself
Assay: native gel or EMSA; semi-native PAGE (8%), Tris-Gly buffer system without detergent or denaturing agents, 100 V, 18 °C, Coomassie; lyophilized and reconstituted SfC12DO

B1: catechol 1,2-dioxygenase from Stutzerimonas frequens GOM2 (enzyme, UniProt A0ABX6XR78 1-312, looked up)
chain: MTVKISHTNDVQQFFKEASGFNNDAGSSRLKTVINRVLADTARIIEDLEITQDEFWKAVDYINRLGGRHEAGLLVAGLGLEHYLDLLQDAKDEQEGLVGGTPRTIEGPLYVAGAPIAEGEVRMDDDSEEGVATTMFLQGRVTGPDGKPLAGATVDLWHANTKGNYSYFDKSQSEYNLRRRIVTDENGYYRARSIVPSGYGCSPDGPTQEVLDMLGRHGQRPAHIHFFISAPGHRHLTTQINLAGDKYLWDDFAYATRDGLVGDIRFIDDAEAARARGVQGRFAEVDFDFQLQKAPAPQAEQRSKRPRALQQA
notes: catechol 1,2-dioxygenase encoded by the CatA gene of Stutzerimonas frequens GOM2 (Pseudomonas stutzeri GOM2); regions are labelled up to residue 312; Non-heme Fe3+ enzyme; Number of copies depends on the sample: dimer when non-lyophilized; dimer, tetramer, (hexamer), octamer and >20-mer after lyophilization and reconstitution; also called SfC12DO; PsC12DO; source: used non-lyophilized, or …
- stoichiometry N: 6
